Where a chain is given by its changes, count along the chain named. Names and notes keep the numbering of the source.
T1: FcγRIIb extracellular domain with C-terminal His tag (human, UniProt P31994 43-217)
T1 construct: extracellular domain; also called FcgRIIb
T1 sequence (looked up): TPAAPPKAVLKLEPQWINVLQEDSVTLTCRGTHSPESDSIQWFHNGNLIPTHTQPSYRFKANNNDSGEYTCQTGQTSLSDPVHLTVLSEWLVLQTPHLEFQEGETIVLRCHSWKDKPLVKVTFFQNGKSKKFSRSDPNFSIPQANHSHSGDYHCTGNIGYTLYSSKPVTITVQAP

T2: FcγRIIa R type extracellular domain, His tag (human, UniProt P12318 34-217)
T2 construct: extracellular domain; also called FcgRIIaR
T2 sequence (looked up): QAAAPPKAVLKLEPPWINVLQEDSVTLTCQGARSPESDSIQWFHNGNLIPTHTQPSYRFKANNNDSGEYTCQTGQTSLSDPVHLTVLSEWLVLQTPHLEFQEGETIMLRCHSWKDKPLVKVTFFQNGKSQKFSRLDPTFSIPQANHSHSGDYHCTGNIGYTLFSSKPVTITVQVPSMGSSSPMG

T3: FcγRIIb extracellular domain, His tag (human, UniProt P31994 43-217)
T3 construct: extracellular domain; also called FcgRIIb
T3 sequence (looked up): T1 sequence (looked up)

B1: IL6R-BP209/IL6R-L (antibody, human IgG1, kappa, name in EU numbering)
heavy: QVQLQESGPGLVKPSETLSLTCAVSGHSISHDHAWSWVRQPPGEGLEWIGFISYSGITNYNPSLQGRVTISRDNSKNTLYLQMNSLRAEDTAVYYCARSLARTTAMDYWGEGTLVTVSSASTKGPSVFPLAPSSKSTSGGTAALGCLVKDYFPEPVTVSWNSGALTSGVHTFPAVLQSSGLYSLSSVVTVPSSSLGTQTYICNVNHKPSNTKVDKKVEPKSCDKTHTCPPCPAPELLGDDSVFLFPPKPKDTLMISRTPEVTCVVVDVSDEDGEVKFNWYVDGVEVHNAKTKPREEQYNSTYRVVSVLTVLHQDWLNGKEYKCKVSNAALPRPIEKTISKAKGQPREPQVYTLPPSRDELTKNQVSLTCLVKGFYPSDIAVEWESNGQPENNYKTTPPVLDSDGSFFLYSKLTVDKSRWQQGNVFSCSVMHEALHNHYTQESLSLSP
light: not shown
notes: IgG1; alterations on IL6R-B3, EU numbering
B2: IL6R-BP084/IL6R-L (antibody, human IgG1, kappa, name in EU numbering)
heavy: B1 heavy with D239G, D270H, G273P, V325M, A328K, R332K
light: not shown
notes: as for B1
B3: IL6R-PD004/IL6R-L (antibody, human IgG1, kappa)
heavy: B1 heavy with D239G, M254Y, D270P, G273P, A328K, R332A, N436Y, E441K
light: not shown
B4: IL6R-PD012/IL6R-L (antibody, human IgG1, kappa)
heavy: B1 heavy with D239G, M254Y, D270H, G273P, S326N, A328K, R332A, N436Y, E441K
light: not shown
B5: IL6R-PD013/IL6R-L (antibody, human IgG1, kappa)
heavy: B1 heavy with D239G, M254Y, D270H, G273P, S326H, A328K, R332A, N436Y, E441K
light: not shown
B6: IL6R-PD024/IL6R-L (antibody, human IgG1, kappa)
heavy: B1 heavy with D239G, M254Y, D270H, G273P, A328K, R332Y, N436Y, E441K
light: not shown
B7: IL6R-PD047/IL6R-L (antibody, human IgG1, kappa)
heavy: B1 heavy with L237F, D239G, M254Y, D270H, G273P, A328K, R332A, N436Y, E441K
light: not shown
B8: IL6R-PD089/IL6R-L (antibody, human IgG1, kappa)
heavy: B1 heavy with D239Q, M254Y, D270H, G273P, A328K, R332A, N436Y, E441K
light: not shown
B9: IL6R-F652/IL6R-L (antibody, human IgG1, kappa)
heavy: B1 heavy with D239G, M254Y, D270H, G273P, A328K, R332A, N436Y, E441K
light: not shown
notes: IL6R-F648 (P238D) with M252Y and N434Y
B10: IL6R-PD023/IL6R-L (antibody, human IgG1, kappa)
heavy: B1 heavy with D239G, M254Y, D270H, G273P, A328K, R332H, N436Y, E441K
light: not shown
B11: IL6R-2B044/IL6R-L (antibody, human IgG1, kappa)
heavy: B1 heavy with D239G, F243L, D270H, G273P, A328K, R332A
light: not shown
B12: IL6R-2B145/IL6R-L (antibody, human IgG1, kappa)
heavy: B1 heavy with D239G, D270H, G273P, S300A, A328K, R332A
light: not shown
B13: IL6R-2B128/IL6R-L (antibody, human IgG1, kappa)
heavy: B1 heavy with D239G, D270H, G273P, Y298D, A328K, R332A
light: not shown
B14: IL6R-2B169/IL6R-L (antibody, human IgG1, kappa)
heavy: B1 heavy with D239G, D270H, G273P, V325I, A328K, R332A
light: not shown
B15: IL6R-2B129/IL6R-L (antibody, human IgG1, kappa)
heavy: B1 heavy with D239G, D270H, G273P, Y298E, A328K, R332A
light: not shown
B16: IL6R-2B154/IL6R-L (antibody, human IgG1, kappa)
heavy: B1 heavy with D239G, D270H, G273P, S300M, A328K, R332A
light: not shown
B17: IL6R-2B045/IL6R-L (antibody, human IgG1, kappa)
heavy: B1 heavy with D239G, F243M, D270H, G273P, A328K, R332A
light: not shown
B18: IL6R-2B124/IL6R-L (antibody, human IgG1, kappa)
heavy: B1 heavy with D239G, D270H, G273P, Q297V, A328K, R332A
light: not shown

target: T4, FcγRIa extracellular domain with C-terminal His tag (human, UniProt P12314 16-292); assay: SPR (Biacore), FcgR as analyte
T4 construct: also called FcgRIa
T4 sequence (P12314 16-292): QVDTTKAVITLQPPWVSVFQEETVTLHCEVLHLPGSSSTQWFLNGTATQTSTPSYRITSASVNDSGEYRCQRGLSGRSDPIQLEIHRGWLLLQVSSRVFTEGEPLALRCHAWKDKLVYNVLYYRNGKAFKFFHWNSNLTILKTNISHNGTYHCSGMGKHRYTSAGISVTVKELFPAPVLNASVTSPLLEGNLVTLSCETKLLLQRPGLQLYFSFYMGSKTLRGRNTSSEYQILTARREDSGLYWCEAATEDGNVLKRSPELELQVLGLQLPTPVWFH

Row | Kd [nM] | Binder
1 | 39 | B1
2 | 7 | B2

target: T1, FcγRIIb extracellular domain with …; assay: SPR (Biacore), FcgR as analyte

Row | Kd [nM] | Binder
3 | 51 | B1
4 | 500 | B2

target: T2, FcγRIIa R type extracellular domain, …; assay: SPR, bound amount per captured antibody

Row | Relative FcgRIIaR-binding Activity | Binder
5 | 77 % of IL6R-F652/IL6R-L | B3
6 | 92.5 % of IL6R-F652/IL6R-L | B4
7 | 90.8 % of IL6R-F652/IL6R-L | B5
8 | 60 % of IL6R-F652/IL6R-L | B6
9 | 89.9 % of IL6R-F652/IL6R-L | B7
10 | 65 % of IL6R-F652/IL6R-L | B8
11 | 100 % of IL6R-F652/IL6R-L | B9
12 | 73.9 % of IL6R-F652/IL6R-L | B10

target: T3, FcγRIIb extracellular domain, His tag; assay: SPR, bound amount per captured antibody

Row | Relative FcgRIIb-binding Activity | Binder
13 | 80.5 % of IL6R-F652/IL6R-L | B3
14 | 102 % of IL6R-F652/IL6R-L | B4
15 | 91.9 % of IL6R-F652/IL6R-L | B5
16 | 74.4 % of IL6R-F652/IL6R-L | B6
17 | 95.4 % of IL6R-F652/IL6R-L | B7
18 | 66 % of IL6R-F652/IL6R-L | B8
19 | 100 % of IL6R-F652/IL6R-L | B9
20 | 102 % of IL6R-F652/IL6R-L | B10

target: T2, FcγRIIa R type extracellular domain, …; assay: SPR, bound amount per captured antibody; remark: another data set of the same source

Row | Relative FcgRIIaR-binding Activity | Binder
21 | 55.7 % of IL6R-BF648/IL6R-L | B11
22 | 45.1 % of IL6R-BF648/IL6R-L | B12
23 | 88.1 % of IL6R-BF648/IL6R-L | B13
24 | 90.8 % of IL6R-BF648/IL6R-L | B14
25 | 68.4 % of IL6R-BF648/IL6R-L | B15
26 | 77.5 % of IL6R-BF648/IL6R-L | B16
27 | 64.7 % of IL6R-BF648/IL6R-L | B17
28 | 65.2 % of IL6R-BF648/IL6R-L | B18

target: T3, FcγRIIb extracellular domain, His tag; assay: SPR, bound amount per captured antibody; remark: another data set of the same source

Row | Relative FcgRIIb-binding Activity | Binder
29 | 65.5 % of IL6R-BF648/IL6R-L | B11
30 | 55.5 % of IL6R-BF648/IL6R-L | B12
31 | 102 % of IL6R-BF648/IL6R-L | B13
32 | 103 % of IL6R-BF648/IL6R-L | B14
33 | 93.3 % of IL6R-BF648/IL6R-L | B15
34 | 79.4 % of IL6R-BF648/IL6R-L | B16
35 | 81.1 % of IL6R-BF648/IL6R-L | B17
36 | 72.9 % of IL6R-BF648/IL6R-L | B18

Source: patent US20220411483A1 (Chugai, published 2022)
